The text below walks through data of patent US20180094274A1 (BOARD OF TRUSTEES OF MICHIGAN STATE UNIVERSITY, published 2018).

T1: BPM1 (yeast two-hybrid) (Arabidopsis, UniProt Q8L765 1-407)
T1 construct: also called E3 ligase bridge protein BPM1; E3 ligase linker BPM protein; not shown: Y2H fusion partner
T1 sequence (looked up): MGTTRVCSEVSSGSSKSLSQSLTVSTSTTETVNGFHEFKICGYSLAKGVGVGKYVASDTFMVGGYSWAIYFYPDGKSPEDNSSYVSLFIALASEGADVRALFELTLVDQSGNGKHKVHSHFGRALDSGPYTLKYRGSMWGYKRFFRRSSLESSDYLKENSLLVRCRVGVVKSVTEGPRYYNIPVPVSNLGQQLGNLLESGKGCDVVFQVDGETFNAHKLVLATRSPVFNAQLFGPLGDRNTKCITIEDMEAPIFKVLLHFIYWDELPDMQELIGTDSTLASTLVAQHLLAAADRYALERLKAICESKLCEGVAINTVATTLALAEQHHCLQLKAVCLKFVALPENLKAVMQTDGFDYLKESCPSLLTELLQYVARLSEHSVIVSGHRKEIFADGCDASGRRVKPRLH

T2: full length AtWRI1 (bait fusion, yeast two-hybrid) (Arabidopsis thaliana, UniProt Q6X5Y6 1-430)
T2 construct: Transcription factor expressed in yeast as bait fusion; also called Arabidopsis thaliana WRINKLED1; not shown: bait fusion partner of the Y2H vector
T2 sequence: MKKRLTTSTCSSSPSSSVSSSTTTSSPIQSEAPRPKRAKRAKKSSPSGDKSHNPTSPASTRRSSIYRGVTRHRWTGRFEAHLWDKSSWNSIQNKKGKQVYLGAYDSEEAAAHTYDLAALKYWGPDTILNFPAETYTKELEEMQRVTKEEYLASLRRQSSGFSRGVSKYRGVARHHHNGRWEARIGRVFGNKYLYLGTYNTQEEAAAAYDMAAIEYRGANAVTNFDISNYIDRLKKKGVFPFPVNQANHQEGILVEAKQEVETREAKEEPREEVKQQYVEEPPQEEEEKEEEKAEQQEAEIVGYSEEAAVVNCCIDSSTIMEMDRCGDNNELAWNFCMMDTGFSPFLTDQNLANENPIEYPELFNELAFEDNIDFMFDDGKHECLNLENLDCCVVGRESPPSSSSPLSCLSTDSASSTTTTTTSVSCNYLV

T3: nYFP-AtWRI1 (Arabidopsis thaliana, UniProt Q6X5Y6 1-430)
T3 construct: BiFC construct transiently produced in N. benthamiana leaves; also called 35S:nYFP-AtWRI1; not shown: N-terminal half of YFP from the BiFC vector
T3 sequence: T2 sequence

B1: AtWRI1^1-77 (yeast two-hybrid) (other)
chain: MKKRLTTSTCSSSPSSSVSSSTTTSSPIQSEAPRPKRAKRAKKSSPSGDKSHNPTSPASTRRSSIYRGVTRHRWTGR
notes: Truncated AtWRI1 variant; not shown: Y2H fusion partner
B2: nYFP-AtWRI1^1-366 (other)
chain: MKKRLTTSTCSSSPSSSVSSSTTTSSPIQSEAPRPKRAKRAKKSSPSGDKSHNPTSPASTRRSSIYRGVTRHRWTGRFEAHLWDKSSWNSIQNKKGKQVYLGAYDSEEAAAHTYDLAALKYWGPDTILNFPAETYTKELEEMQRVTKEEYLASLRRQSSGFSRGVSKYRGVARHHHNGRWEARIGRVFGNKYLYLGTYNTQEEAAAAYDMAAIEYRGANAVTNFDISNYIDRLKKKGVFPFPVNQANHQEGILVEAKQEVETREAKEEPREEVKQQYVEEPPQEEEEKEEEKAEQQEAEIVGYSEEAAVVNCCIDSSTIMEMDRCGDNNELAWNFCMMDTGFSPFLTDQNLANENPIEYPELFNEL
notes: also called AtWRI1^Δ367-430; not shown: N-terminal half of YFP from the BiFC vector
B3: 14-3-3ν (yeast two-hybrid) (other, Arabidopsis, UniProt Q96300 1-265, looked up)
chain: MSSSREENVYLAKLAEQAERYEEMVEFMEKVAKTVDTDELTVEERNLLSVAYKNVIGARRASWRIISSIEQKEESRGNDDHVSIIKDYRGKIETELSKICDGILNLLDSHLVPTASLAESKVFYLKMKGDYHRYLAEFKTGAERKEAAESTLVAYKSAQDIALADLAPTHPIRLGLALNFSVFYYEILNSPDRACSLAKQAFDEAISELDTLGEESYKDSTLIMQLLRDNLTLWNSDINDEAGGDEIKEASKHEPEEGKPAETGQ
notes: also called 14-3-3 nu; not shown: Y2H fusion partner
B4: AtWRI1^1-92 (yeast two-hybrid) (other)
chain: MKKRLTTSTCSSSPSSSVSSSTTTSSPIQSEAPRPKRAKRAKKSSPSGDKSHNPTSPASTRRSSIYRGVTRHRWTGRFEAHLWDKSSWNSIQ
notes: as for B1
B5: cYFP-BPM1 (other, Arabidopsis, UniProt Q8L765 1-407, looked up)
chain: T1 sequence (looked up)
notes: BiFC construct transiently produced in N. benthamiana leaves; also called 35S:cYFP-BPM1; BTB/POZ and MATH domain-containing (BPM) 1; not shown: C-terminal half of YFP from the BiFC vector

Assay [1] has as its target T1, BPM1 (yeast two-hybrid). The experiment in a line: yeast two-hybrid.
The assay “cYFP-BPM1” concerns the target B5. Kind of assay: BiFC, transient expression in N. benthamiana leaves. From the text:
(§1) Confocal microscopy and bimolecular fluorescence complementation (BiFC) assays used 35S:YFP-AtWRI1 (including truncated AtWRI1 variants and AtWRI1 site-directed mutants fused to yellow fluorescent protein (YFP)) were generated through GATEWAY system. For BiFC experiments, 35S:nYFP-AtWRI1 (including truncated AtWRI1 variants) and 35S:cYFP-BPM1 were similarly assembled. Constructs were transformed into A. tumefaciens (GV3101 strain). For BiFC experiments to test protein-protein interaction, A. tumefaciens harboring each nYFP and cYFP fusion construct was prepared (each culture was re-suspended to 1.2 OD₆₀₀ in MMA buffer) and adjusted to 0.4 OD₆₀₀ prior to injection into plant leaves. Healthy leaves of N. benthamiana plants were infiltrated by bacterial suspensions with a 1-mL blunt-end syringe. Plants were returned to growth chambers and YFP fluorescence signals were captured by a confocal microscope 2 to 3 d after bacterial infiltration. YFP fluorescence signal intensity was analyzed using ImageJ software.
(§2) A bimolecular fluorescence complementation (BiFC) assay was used to investigate the interaction between AtWRI1 and a BPM protein (BPM1). AtWRI1 and BPM1 were subcloned to BiFC vectors which generated nYFP-AtWRI1 and cYFP-BPM1 (half N-terminus of YFP and half C-terminus of YFP, respectively). […]

In assay [2] the target is T2, full length AtWRI1 (bait fusion, yeast …). The experiment in a line: yeast two-hybrid.
For assay [3], the target named is T1, BPM1 (yeast two-hybrid). Kind of assay: yeast two-hybrid with truncated AtWRI1 variants.
The target of a further assay is T3, nYFP-AtWRI1. Kind of assay: BiFC, transient expression in N. benthamiana leaves.
Source text: as §1, §2

With B1, the binding result in the assay with BPM1 (yeast two-hybrid) [1] is on record as “no binding”.

Turning to B2, the binding result with cYFP-BPM1 is “binds”.

For the molecule B3, the binding result in assay [2] was “binds”.

Consider B4, for which the binding result with BPM1 (yeast two-hybrid) [3] is listed as “binds”.

As to B5, in the assay with nYFP-AtWRI1, the binding result is given as “binds”.
